The values below come from PMC11869757 (Drug Design, Development and Therapy, 2025).

For this experiment, the target named is T1, CD122/IL-2Rβ with a His-tag (Sino Biological, 10696-H08B) (human, UniProt P14784).
T1 sequence: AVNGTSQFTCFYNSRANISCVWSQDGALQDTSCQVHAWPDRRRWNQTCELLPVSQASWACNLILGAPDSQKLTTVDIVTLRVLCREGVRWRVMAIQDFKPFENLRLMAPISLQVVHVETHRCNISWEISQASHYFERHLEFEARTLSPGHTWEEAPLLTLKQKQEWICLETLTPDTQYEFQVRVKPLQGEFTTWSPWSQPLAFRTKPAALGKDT
The experiment can be described thus: SPR. Background: SPR reads the build-up and loss of mass on a sensor chip optically.

B1: SHR-1916, PEGylated interleukin-2 analogue (IL-2 N26Q/N29S/F42A/N71Q/L72G/C125A with a 20 kDa PEG at the N-terminus) (ligand)
chain: APTSSSTKKTQLQLEHLLLDLQMILQGISNYKNPKLTRMLTAKFYMPKKATELKHLQCLEEELKPLEEVLQGAQSKNFHLRPRDLISNINVIVLELKGSETTFMCEYADETATIVEFLNRWITFAQSIISTLT
modifications: 20 kDa PEG on the N-terminal amine group
In the case of B1, the Kd is 1710 nM.

What is called Kd is the equilibrium constant for the complex coming apart. Low readings indicate higher affinity, high ones lower affinity.
